The record followed here is US20210246166A1 (Bayer, published 2021).

Numbered stars: 1 amine (or outer) side, 2 acyl side, 3 side chain; on linkers, the order of the positions; unused ones are H or OH. Bridge positions count the residues as written; N and C are the ends. Square brackets hold non-standard residues; d marks the D form. Ends that are not written are not given here. Phe(2,5-F2) = 2,5-difluorophenylalanine, O=C([C@H](Cc1cc(F)ccc1F)N[*:1])[*:2]; X12 = (S)‑(trifluoromethyl)‑L‑cysteine, O=C([C@H](CSC(F)(F)F)N[*:1])[*:2]; Oic = O=C(O)[C@@H]1C[C@@H]2CCCC[C@@H]2N1; Phe(2-Cl) = N[C@@H](Cc1ccccc1Cl)C(=O)O; tBuAla = CC(C)(C)C[C@H](N)C(=O)O; Chg = N[C@H](C(=O)O)C1CCCCC1; Pen = CC(C)(S)[C@H](N)C(=O)O; ΔPro = O=C(O)[C@@H]1C=CCN1; 4Amb = NCc1ccc(C(=O)O)cc1; NMeC = CN[C@@H](CS)C(=O)O; Orn = NCCC[C@H](N)C(=O)O; Abu = CC[C@H](N)C(=O)O; Sar = CNCC(=O)O

First the molecules themselves.
T1: Recombinant human MASP1 enzyme (fragment corresponding to amino acids 297-699, C-terminal His Tag) (human, UniProt P48740 297-699)
T1 sequence: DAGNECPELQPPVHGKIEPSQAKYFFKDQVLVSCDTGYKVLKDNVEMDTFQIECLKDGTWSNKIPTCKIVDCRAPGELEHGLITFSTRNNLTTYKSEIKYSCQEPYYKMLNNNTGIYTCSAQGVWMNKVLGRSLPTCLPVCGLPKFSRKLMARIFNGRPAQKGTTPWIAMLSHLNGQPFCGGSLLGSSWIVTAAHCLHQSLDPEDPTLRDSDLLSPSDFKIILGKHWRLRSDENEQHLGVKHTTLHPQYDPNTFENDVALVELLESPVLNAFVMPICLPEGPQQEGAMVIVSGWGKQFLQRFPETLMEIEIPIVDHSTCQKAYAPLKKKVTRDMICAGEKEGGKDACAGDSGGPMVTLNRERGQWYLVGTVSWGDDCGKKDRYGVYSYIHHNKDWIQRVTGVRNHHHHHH

B1: (Orn)-IC+SRS-((S)-(trifluoromethyl)-L-cysteine)-PPI-(Pen)+IP-NH2 (peptide)
peptide: [Orn]ICSRS[X12]PPI[Pen]IP-NH2
modifications: disulfide 3-11; N-terminus assumed
SMILES: CC[C@H](C)[C@H](NC(=O)[C@@H](N)CCCN)C(=O)N[C@H]1CSSC(C)(C)[C@@H](C(=O)N[C@H](C(=O)N2CCC[C@H]2C(N)=O)[C@@H](C)CC)NC(=O)[C@H]([C@@H](C)CC)NC(=O)[C@@H]2CCCN2C(=O)[C@@H]2CCCN2C(=O)[C@H](CSC(F)(F)F)NC(=O)[C@H](CO)NC(=O)[C@H](CCCNC(=N)N)NC(=O)[C@H](CO)NC1=O
B2: AIC+SRS-((2,5-Difluoro)F)-PPI-((N-Me)C)+IPD-NH2 (peptide)
peptide: AICSRS[Phe(2,5-F2)]PPI[NMeC]IPD-NH2
modifications: disulfide 3-11; N-terminus assumed
SMILES: CC[C@H](C)[C@H](NC(=O)[C@H](C)N)C(=O)N[C@H]1CSSC[C@@H](C(=O)N[C@H](C(=O)N2CCC[C@H]2C(=O)N[C@@H](CC(=O)O)C(N)=O)[C@@H](C)CC)N(C)C(=O)[C@H]([C@@H](C)CC)NC(=O)[C@@H]2CCCN2C(=O)[C@@H]2CCCN2C(=O)[C@H](Cc2cc(F)ccc2F)NC(=O)[C@H](CO)NC(=O)[C@H](CCCNC(=N)N)NC(=O)[C@H](CO)NC1=O
B3: (Orn)-IC+SRSLPP-(Chg)-C+IPD-OH (peptide)
peptide: [Orn]ICSRSLPP[Chg]CIPD-OH
modifications: disulfide 3-11; N-terminus assumed
SMILES: CC[C@H](C)[C@H](NC(=O)[C@@H](N)CCCN)C(=O)N[C@H]1CSSC[C@@H](C(=O)N[C@H](C(=O)N2CCC[C@H]2C(=O)N[C@@H](CC(=O)O)C(=O)O)[C@@H](C)CC)NC(=O)[C@H](C2CCCCC2)NC(=O)[C@@H]2CCCN2C(=O)[C@@H]2CCCN2C(=O)[C@H](CC(C)C)NC(=O)[C@H](CO)NC(=O)[C@H](CCCNC(=N)N)NC(=O)[C@H](CO)NC1=O
B4: AIC+SRS-((2-Chloro)F)-PPI-((N-Me)C)+IPD-NH2 (peptide)
peptide: AICSRS[Phe(2-Cl)]PPI[NMeC]IPD-NH2
modifications: disulfide 3-11; N-terminus assumed
SMILES: CC[C@H](C)[C@H](NC(=O)[C@H](C)N)C(=O)N[C@H]1CSSC[C@@H](C(=O)N[C@H](C(=O)N2CCC[C@H]2C(=O)N[C@@H](CC(=O)O)C(N)=O)[C@@H](C)CC)N(C)C(=O)[C@H]([C@@H](C)CC)NC(=O)[C@@H]2CCCN2C(=O)[C@@H]2CCCN2C(=O)[C@H](Cc2ccccc2Cl)NC(=O)[C@H](CO)NC(=O)[C@H](CCCNC(=N)N)NC(=O)[C@H](CO)NC1=O
B5: AIC+SRS-((tBu)A)-P-(Oic)-I-C+IPD-NH2 (peptide)
peptide: AICSRS[tBuAla]P[Oic]ICIPD-NH2
modifications: disulfide 3-11; N-terminus assumed
SMILES: CC[C@H](C)[C@H](NC(=O)[C@H](C)N)C(=O)N[C@H]1CSSC[C@@H](C(=O)N[C@H](C(=O)N2CCC[C@H]2C(=O)N[C@@H](CC(=O)O)C(N)=O)[C@@H](C)CC)NC(=O)[C@H]([C@@H](C)CC)NC(=O)[C@@H]2C[C@@H]3CCCC[C@@H]3N2C(=O)[C@@H]2CCCN2C(=O)[C@H](CC(C)(C)C)NC(=O)[C@H](CO)NC(=O)[C@H](CCCNC(=N)N)NC(=O)[C@H](CO)NC1=O
B6: AIC+SRSL-(L-dehydroproline)-(Oic)-I-(Pen)+IPD-OH (peptide)
peptide: AICSRSL[ΔPro][Oic]I[Pen]IPD-OH
modifications: disulfide 3-11; N-terminus assumed
SMILES: CC[C@H](C)[C@H](NC(=O)[C@H](C)N)C(=O)N[C@H]1CSSC(C)(C)[C@@H](C(=O)N[C@H](C(=O)N2CCC[C@H]2C(=O)N[C@@H](CC(=O)O)C(=O)O)[C@@H](C)CC)NC(=O)[C@H]([C@@H](C)CC)NC(=O)[C@@H]2C[C@@H]3CCCC[C@@H]3N2C(=O)[C@@H]2C=CCN2C(=O)[C@H](CC(C)C)NC(=O)[C@H](CO)NC(=O)[C@H](CCCNC(=N)N)NC(=O)[C@H](CO)NC1=O
B7: AIC+SRSLP-(Oic)-IC+IPD-NH2 (peptide)
peptide: AICSRSLP[Oic]ICIPD-NH2
modifications: disulfide 3-11; N-terminus assumed
SMILES: CC[C@H](C)[C@H](NC(=O)[C@H](C)N)C(=O)N[C@H]1CSSC[C@@H](C(=O)N[C@H](C(=O)N2CCC[C@H]2C(=O)N[C@@H](CC(=O)O)C(N)=O)[C@@H](C)CC)NC(=O)[C@H]([C@@H](C)CC)NC(=O)[C@@H]2C[C@@H]3CCCC[C@@H]3N2C(=O)[C@@H]2CCCN2C(=O)[C@H](CC(C)C)NC(=O)[C@H](CO)NC(=O)[C@H](CCCNC(=N)N)NC(=O)[C@H](CO)NC1=O
B8: (Abu)-IC+SRSLPPIC+IPD-NH2 (peptide)
peptide: [Abu]ICSRSLPPICIPD-NH2
modifications: disulfide 3-11; N-terminus assumed
SMILES: CC[C@H](N)C(=O)N[C@H](C(=O)N[C@H]1CSSC[C@@H](C(=O)N[C@H](C(=O)N2CCC[C@H]2C(=O)N[C@@H](CC(=O)O)C(N)=O)[C@@H](C)CC)NC(=O)[C@H]([C@@H](C)CC)NC(=O)[C@@H]2CCCN2C(=O)[C@@H]2CCCN2C(=O)[C@H](CC(C)C)NC(=O)[C@H](CO)NC(=O)[C@H](CCCNC(=N)N)NC(=O)[C@H](CO)NC1=O)[C@@H](C)CC
B9: aIC+SRS-((S)-(trifluoromethyl)-L-cysteine)-PPI-(Pen)+IP-NH2 (peptide)
peptide: [dA]ICSRS[X12]PPI[Pen]IP-NH2
modifications: disulfide 3-11; N-terminus assumed
SMILES: CC[C@H](C)[C@H](NC(=O)[C@@H](C)N)C(=O)N[C@H]1CSSC(C)(C)[C@@H](C(=O)N[C@H](C(=O)N2CCC[C@H]2C(N)=O)[C@@H](C)CC)NC(=O)[C@H]([C@@H](C)CC)NC(=O)[C@@H]2CCCN2C(=O)[C@@H]2CCCN2C(=O)[C@H](CSC(F)(F)F)NC(=O)[C@H](CO)NC(=O)[C@H](CCCNC(=N)N)NC(=O)[C@H](CO)NC1=O
B10: ((N-Me)G)-IC+SRSLPPI-((N-Me)C)+IPD-OH (peptide)
peptide: [Sar]ICSRSLPPI[NMeC]IPD-OH
modifications: disulfide 3-11; N-terminus assumed
SMILES: CC[C@H](C)[C@H](NC(=O)CNC)C(=O)N[C@H]1CSSC[C@@H](C(=O)N[C@H](C(=O)N2CCC[C@H]2C(=O)N[C@@H](CC(=O)O)C(=O)O)[C@@H](C)CC)N(C)C(=O)[C@H]([C@@H](C)CC)NC(=O)[C@@H]2CCCN2C(=O)[C@@H]2CCCN2C(=O)[C@H](CC(C)C)NC(=O)[C@H](CO)NC(=O)[C@H](CCCNC(=N)N)NC(=O)[C@H](CO)NC1=O
B11: AIC+SRS-((tBu)A)-P-(Oic)-I-((N-Me)C)+IPD-OH (peptide)
peptide: AICSRS[tBuAla]P[Oic]I[NMeC]IPD-OH
modifications: disulfide 3-11; N-terminus assumed
SMILES: CC[C@H](C)[C@H](NC(=O)[C@H](C)N)C(=O)N[C@H]1CSSC[C@@H](C(=O)N[C@H](C(=O)N2CCC[C@H]2C(=O)N[C@@H](CC(=O)O)C(=O)O)[C@@H](C)CC)N(C)C(=O)[C@H]([C@@H](C)CC)NC(=O)[C@@H]2C[C@@H]3CCCC[C@@H]3N2C(=O)[C@@H]2CCCN2C(=O)[C@H](CC(C)(C)C)NC(=O)[C@H](CO)NC(=O)[C@H](CCCNC(=N)N)NC(=O)[C@H](CO)NC1=O
B12: (4-(Aminomethyl)benzoic acid)-IC+SRS-((tBu)A)-PPI-((N-Me)C)+IPD-NH2 (peptide)
peptide: [4Amb]ICSRS[tBuAla]PPI[NMeC]IPD-NH2
modifications: disulfide 3-11; N-terminus assumed
SMILES: CC[C@H](C)[C@H](NC(=O)c1ccc(CN)cc1)C(=O)N[C@H]1CSSC[C@@H](C(=O)N[C@H](C(=O)N2CCC[C@H]2C(=O)N[C@@H](CC(=O)O)C(N)=O)[C@@H](C)CC)N(C)C(=O)[C@H]([C@@H](C)CC)NC(=O)[C@@H]2CCCN2C(=O)[C@@H]2CCCN2C(=O)[C@H](CC(C)(C)C)NC(=O)[C@H](CO)NC(=O)[C@H](CCCNC(=N)N)NC(=O)[C@H](CO)NC1=O
B13: (Orn)-IC+SRSLPPIC+I-NH2 (peptide)
peptide: [Orn]ICSRSLPPICI-NH2
modifications: disulfide 3-11; N-terminus assumed
SMILES: CC[C@H](C)[C@H](NC(=O)[C@@H]1CSSC[C@H](NC(=O)[C@@H](NC(=O)[C@@H](N)CCCN)[C@@H](C)CC)C(=O)N[C@@H](CO)C(=O)N[C@@H](CCCNC(=N)N)C(=O)N[C@@H](CO)C(=O)N[C@@H](CC(C)C)C(=O)N2CCC[C@H]2C(=O)N2CCC[C@H]2C(=O)N[C@@H]([C@@H](C)CC)C(=O)N1)C(N)=O

Sequence of Recombinant human MASP2 enzyme (fragment corresponding to amino acids 297-686, C-terminal His Tag) (O00187 other isoform, or with tags, fused parts or gaps limits assumed): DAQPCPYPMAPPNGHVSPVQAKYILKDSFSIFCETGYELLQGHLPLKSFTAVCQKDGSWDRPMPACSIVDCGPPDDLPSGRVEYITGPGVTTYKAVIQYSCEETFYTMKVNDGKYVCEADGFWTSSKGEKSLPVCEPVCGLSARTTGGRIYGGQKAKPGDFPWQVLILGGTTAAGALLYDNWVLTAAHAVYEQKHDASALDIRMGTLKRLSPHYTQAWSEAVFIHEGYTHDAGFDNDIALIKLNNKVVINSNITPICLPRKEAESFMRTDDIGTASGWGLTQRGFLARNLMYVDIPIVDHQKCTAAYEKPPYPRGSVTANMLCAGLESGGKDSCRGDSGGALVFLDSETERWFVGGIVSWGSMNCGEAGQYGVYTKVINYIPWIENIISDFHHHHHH

The first assay addresses Recombinant human MASP2 enzyme (fragment corresponding to amino acids 297-686, C-terminal His Tag) (human, UniProt O00187 297-686). Briefly: cell-based or functional assay.
In the case of B1, the “human MASP2 IC50” value is 56 nM.
B2: the “human MASP2 IC50” value turned out to be 63 nM.
On to B3, for which the “human MASP2 IC50” value amounted to 49 nM.
For B4, the “human MASP2 IC50” value turned out to be 130 nM.
Still for that read-out and setting: to B5 belongs 260 nM; to B6, 64 nM; to B7, 400 nM.
Consider B8, for which the “human MASP2 IC50” value came to 300 nM.
In the case of B9, the “human MASP2 IC50” value turned out to be 19 nM.
Regarding B10, the “human MASP2 IC50” value was found to be 1700 nM.
As for B11, the “human MASP2 IC50” value came to 190 nM.
For {2‑(3-Pyridyl)acetyl}-ICSRS[tBuAla]PPI[Pen]IP-NH2 (disulfide 2-10) [(2-(3-Pyridyl)acetic acid)-IC+SRS-((tBu)A)-PPI-(Pen)+IP-NH2], the “human MASP2 IC50” value stood at 8.5 nM.
Turning to B12, the “human MASP2 IC50” value is 35 nM.
On the same count and under the same terms, next, B13: 190 nM.
Take [2‑(Cyclohexylamino)acetyl]ICSRS[tBuAla]PPI[Pen]IPD-NH2 (disulfide 3-11) [(2-(Cyclohexylamino)acetyl)-IC+SRS-((tBu)A)-PPI-(Pen)+IPD-NH2]: the “human MASP2 IC50” value was found to be 200 nM.

A further assay deals with T1, Recombinant human MASP1 enzyme …. The assay is described as follows: cell-based or functional assay.
Take B1: the “human MASP1 IC50” value was found to be 8.1 nM.
B2: the “human MASP1 IC50” value was found to be 7.6 nM.
As to B3, the “human MASP1 IC50” value came to 6.9 nM.
With B4, the “human MASP1 IC50” value was determined as 8.1 nM.
Take B5: the “human MASP1 IC50” value stood at 7.4 nM.
Regarding B6, the “human MASP1 IC50” value was 9.3 nM.
Turning to B7, the “human MASP1 IC50” value was 6.9 nM.
On to B8, for which the “human MASP1 IC50” value was determined as 7.2 nM.
As to B9, the “human MASP1 IC50” value worked out at 7.3 nM.
Turning to B10, the “human MASP1 IC50” value came out at 7.3 nM.
Take B11: the “human MASP1 IC50” value was determined as 7.2 nM.
On the same count and under the same terms, to {2‑(3-Pyridyl)acetyl}-ICSRS[tBuAla]PPI[Pen]IP-NH2 (disulfide 2-10) [(2-(3-Pyridyl)acetic acid)-IC+SRS-((tBu)A)-PPI-(Pen)+IP-NH2] belongs 7 nM.
Consider B12, for which the “human MASP1 IC50” value was determined as 8.1 nM.
For B13, the “human MASP1 IC50” value was 7.8 nM.
In the case of [2‑(Cyclohexylamino)acetyl]ICSRS[tBuAla]PPI[Pen]IPD-NH2 (disulfide 3-11) [(2-(Cyclohexylamino)acetyl)-IC+SRS-((tBu)A)-PPI-(Pen)+IPD-NH2], the “human MASP1 IC50” value is 7.1 nM.
